Patent publication US20220162261A1 (published 2022)
Like-named read-outs stand apart in the source and are kept apart here. Bridge positions count the residues as written; N and C are the ends. Square brackets hold non-standard residues; d marks the D form. Ends that are not written are not given here. Phe(4-tBu) = CC(C)(C)c1ccc(C[C@H](N)C(=O)O)cc1; NMeR = CN[C@@H](CCCNC(=N)N)C(=O)O; β3hE = N[C@@H](CCC(=O)O)CC(=O)O; NMeK = CN[C@@H](CCCCN)C(=O)O; Pen = CC(C)(S)[C@H](N)C(=O)O; dNMeK = CN[C@H](CCCCN)C(=O)O; βAla = NCCC(=O)O

B1: SEQ ID NO: 149 (peptide)
peptide: Ac-[Pen][NMeR]SDTL[Pen][Phe(4-tBu)][β3hE][NMeK]-NH2
modifications: disulfide 1-7; not fully specified (residue 10); printed as (Ac Pen N-Me-R S D T L Pen F(4-tBu) b-H-E N-Me-K NH2)2 DIG, disulfide Pen-Pen; also: homodimer (…)2 DIG via Lys10 NZ
B2: SEQ ID NO: 153 (peptide)
peptide: Ac-[Pen][NMeR]SDTL[Pen][Phe(4-tBu)][β3hE][dK]-NH2
modifications: disulfide 1-7
SMILES: CC(=O)N[C@@H]1C(=O)N(C)[C@@H](CCCNC(=N)N)C(=O)N[C@@H](CO)C(=O)N[C@@H](CC(=O)O)C(=O)N[C@@H]([C@@H](C)O)C(=O)N[C@@H](CC(C)C)C(=O)N[C@H](C(=O)N[C@@H](Cc2ccc(C(C)(C)C)cc2)C(=O)N[C@@H](CCC(=O)O)CC(=O)N[C@H](CCCCN)C(N)=O)C(C)(C)SSC1(C)C
B3: SEQ ID NO: 218 (peptide)
peptide: Ac-[Pen][NMeR]SDTL[Pen][Phe(4-tBu)][β3hE][dK]-NH2
modifications: disulfide 1-7; not fully specified (residue 10); printed as (Ac Pen N-Me-R S D T L Pen F(4-tBu) b-H-E k NH2)2 DIG, disulfide Pen-Pen; also: dimer, two subunits joined by DIG linker
notes: also called peptide 218
B4: SEQ ID NO: 22 (peptide)
peptide: Ac-[Pen][NMeR]SDTL[Pen]YE[dK]-NH2
modifications: disulfide 1-7; not fully specified (residue 10); printed as (Ac Pen N-Me-R S D T L Pen Y E k NH2)2 DIG, disulfide Pen-Pen; also: dimer, two subunits joined by DIG linker
B5: SEQ ID NO: 214 (peptide)
peptide: Ac-[Pen][NMeR]SDTL[Pen]WE[dNMeK]-NH2
modifications: disulfide 1-7; not fully specified (residue 10); printed as (Ac Pen N-Me-R S D T L Pen W E N-Me-k NH2)2 DIG, disulfide Pen-Pen; also: dimer, two subunits joined by DIG linker
notes: also called peptide 214
B6: SEQ ID NO: 215 (peptide)
peptide: Ac-[Pen][NMeR]SDTL[Pen]WE[NMeK]-NH2
modifications: disulfide 1-7; not fully specified; printed as [Ac-Pen-(N-Me-Arg)-Ser-Asp-Thr-Leu-Pen-Trp-Glu-(N-Me-Lys)-NH2]2-DIG; also: homodimer: two identical subunits joined by DIG linker at the Lys10 side chains, each subunit has its own Pen1-Pen7 disulfide
notes: also called peptide 215
B7: SEQ ID NO: 141 (peptide)
peptide: Ac-[Pen][NMeR]SDTL[Pen]W[β3hE][NMeK]-NH2
modifications: disulfide 1-7; not fully specified (residue 10); printed as (Ac Pen N-Me-R S D T L Pen W b-H-E N-Me-K NH2)2 DIG, disulfide Pen-Pen; also: homodimer (…)2 DIG via Lys10 NZ
B8: SEQ ID NO: 213 (peptide)
peptide: Ac-[Pen][NMeR]SDTL[Pen]W[β3hE][dK]-NH2
modifications: disulfide 1-7; not fully specified (residue 10); printed as (Ac Pen N-Me-R S D T L Pen W b-h-E k NH2)2 DIG, disulfide Pen-Pen; also: dimer, two subunits joined by DIG linker
notes: also called peptide 213; Peptide XX
B9: SEQ ID NO: 217 (peptide)
peptide: Ac-[Pen][NMeR]SDTL[Pen]WE[dK]-NH2
modifications: disulfide 1-7; not fully specified (residue 10); printed as (Ac Pen N-Me-R S D T L Pen W E k NH2)2 DIG, disulfide Pen-Pen; also: dimer, two subunits joined by DIG linker
notes: also called peptide 217
B10: SEQ ID NO: 152 (peptide)
peptide: Ac-[Pen][NMeR]SDTL[Pen][Phe(4-tBu)][β3hE]-OH
modifications: disulfide 1-7
SMILES: CC(=O)N[C@@H]1C(=O)N(C)[C@@H](CCCNC(=N)N)C(=O)N[C@@H](CO)C(=O)N[C@@H](CC(=O)O)C(=O)N[C@@H]([C@@H](C)O)C(=O)N[C@@H](CC(C)C)C(=O)N[C@H](C(=O)N[C@@H](Cc2ccc(C(C)(C)C)cc2)C(=O)N[C@@H](CCC(=O)O)CC(=O)O)C(C)(C)SSC1(C)C
B11: SEQ ID NO: 54 (peptide)
peptide: [βAla][Pen][NMeR]SDTL[Pen]WE-NH2
modifications: disulfide 2-8; not fully specified (N-terminus); printed as DIG (NH2 Beta-Ala Pen N-Me-R S D T L Pen W E NH2)2, disulfide Pen-Pen; also: homodimer: two subunits linked by DIG via N-terminal Beta-Ala amine
notes: linker printed at the N-terminus

What was measured:
[1] = target: T1, human α4β7 integrin on cells (human, UniProt P13612 34-1032; P26010 20-798); experiment: PBMC memory T cell adhesion
T1 construct: whole, on cells; also called α4β7 cell (Hu); RPMI8866 cells

[2] = target: T2, α4β1 (R&D Systems #5668-A4) (UniProt P13612 34-970; P05556 21-728, limits assumed); experiment: competition ELISA vs VCAM-1
T2 construct: bought; also called soluble α4β1

[3] = target: T3, mouse α4β7 integrin on TK1 cells (mouse, UniProt Q00651 41-1039; P26011 20-806); experiment: TK1 cell adhesion to MAdCAM-1
T3 construct: whole, on cells; also called α4β7 cell (Mu); Cell Adhesion α4β7 Mouse
T3 sequence (Q00651 41-1039, chain 1 of 2): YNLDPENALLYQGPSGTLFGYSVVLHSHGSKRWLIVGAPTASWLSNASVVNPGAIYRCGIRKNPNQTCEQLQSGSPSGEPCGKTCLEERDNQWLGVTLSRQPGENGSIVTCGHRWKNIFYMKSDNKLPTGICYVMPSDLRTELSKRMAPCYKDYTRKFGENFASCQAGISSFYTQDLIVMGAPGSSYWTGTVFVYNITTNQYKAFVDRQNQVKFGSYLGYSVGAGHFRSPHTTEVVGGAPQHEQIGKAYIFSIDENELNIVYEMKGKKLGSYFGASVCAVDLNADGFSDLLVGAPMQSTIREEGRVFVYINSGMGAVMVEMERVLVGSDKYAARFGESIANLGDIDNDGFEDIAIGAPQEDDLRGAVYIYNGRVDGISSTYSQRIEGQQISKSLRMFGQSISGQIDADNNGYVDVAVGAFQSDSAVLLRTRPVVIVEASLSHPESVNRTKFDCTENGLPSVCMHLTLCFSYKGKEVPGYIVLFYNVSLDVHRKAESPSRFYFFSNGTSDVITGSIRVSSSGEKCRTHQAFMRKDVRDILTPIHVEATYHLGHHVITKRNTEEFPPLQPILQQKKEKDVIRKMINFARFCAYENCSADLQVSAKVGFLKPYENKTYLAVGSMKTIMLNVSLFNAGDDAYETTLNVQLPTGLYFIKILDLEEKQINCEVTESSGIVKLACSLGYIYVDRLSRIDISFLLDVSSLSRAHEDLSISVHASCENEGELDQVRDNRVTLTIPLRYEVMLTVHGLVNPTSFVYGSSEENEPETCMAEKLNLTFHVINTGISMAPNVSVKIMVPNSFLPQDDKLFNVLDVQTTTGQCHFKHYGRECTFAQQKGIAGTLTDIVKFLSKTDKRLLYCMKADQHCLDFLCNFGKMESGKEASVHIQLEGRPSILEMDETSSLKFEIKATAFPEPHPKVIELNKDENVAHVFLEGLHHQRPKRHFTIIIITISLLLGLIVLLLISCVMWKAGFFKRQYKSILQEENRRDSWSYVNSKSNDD
T3 sequence (P26011 20-806, chain 2 of 2): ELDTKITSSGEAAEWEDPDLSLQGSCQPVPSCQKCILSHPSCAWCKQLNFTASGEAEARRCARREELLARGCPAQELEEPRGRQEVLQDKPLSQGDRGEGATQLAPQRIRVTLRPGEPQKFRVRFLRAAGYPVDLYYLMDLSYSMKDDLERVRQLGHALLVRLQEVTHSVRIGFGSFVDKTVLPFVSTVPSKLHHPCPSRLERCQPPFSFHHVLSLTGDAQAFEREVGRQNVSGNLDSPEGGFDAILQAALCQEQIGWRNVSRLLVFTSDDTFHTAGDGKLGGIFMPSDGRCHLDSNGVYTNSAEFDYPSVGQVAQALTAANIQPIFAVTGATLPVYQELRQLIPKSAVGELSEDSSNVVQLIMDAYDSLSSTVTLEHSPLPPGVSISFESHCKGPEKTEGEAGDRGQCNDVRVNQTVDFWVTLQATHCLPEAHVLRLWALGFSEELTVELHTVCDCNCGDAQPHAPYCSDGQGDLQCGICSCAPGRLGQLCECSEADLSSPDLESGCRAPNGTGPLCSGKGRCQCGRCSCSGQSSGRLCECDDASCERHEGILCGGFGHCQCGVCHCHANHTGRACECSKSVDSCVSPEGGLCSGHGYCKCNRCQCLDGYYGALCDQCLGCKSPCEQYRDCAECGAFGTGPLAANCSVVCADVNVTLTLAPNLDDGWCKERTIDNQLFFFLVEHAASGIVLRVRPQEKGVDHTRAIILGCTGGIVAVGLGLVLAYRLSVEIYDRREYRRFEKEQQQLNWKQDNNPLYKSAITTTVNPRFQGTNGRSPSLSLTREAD

[4] = target: T4, rh integrin α4β7 (R&D Systems #5397-A30) (human, UniProt P13612 34-970; P26010 20-723); experiment: competition ELISA vs MAdCAM-1
T4 construct: bought; coated on a nickel coated plate; also called immobilized α4β7; immobilized α4β7 integrin protein

[5] = target: T1, human α4β7 integrin on cells; experiment: RPMI8866 cell adhesion to MAdCAM-1
[6] = target: T1, human α4β7 integrin on cells; experiment: PBMC memory T cell adhesion; remark: listed apart in the source
[7] = target: T2, α4β1 (R&D Systems #5668-A4); experiment: competition ELISA vs VCAM-1; remark: listed apart in the source
[8] = target: T3, mouse α4β7 integrin on TK1 cells; experiment: TK1 cell adhesion to MAdCAM-1; remark: listed apart in the source
[9] = target: T4, rh integrin α4β7 (R&D Systems #5397-A30); experiment: competition ELISA vs MAdCAM-1; remark: listed apart in the source
[10] = target: T5, human α4β1 integrin on cells (human, UniProt P13612 34-1032; P05556 21-798); experiment: Jurkat cell adhesion to VCAM-1
T5 construct: whole, on cells; also called α4β1 cell; Jurkat cells

[11] = target: T1, human α4β7 integrin on cells; experiment: RPMI8866 cell adhesion to MAdCAM-1; remark: listed apart in the source

| IC50 [1] [nM] | IC50 [2] [nM] | IC50 [3] [nM] | IC50 [4] [nM] | IC50 [5] [nM] | IC50 [6] [nM] | IC50 [7] [nM] | IC50 [8] [nM] | IC50 [9] [nM] | IC50 [10] [nM] | IC50 [11] [nM] | Binder |
| --- | --- | --- | --- | --- | --- | --- | --- | --- | --- | --- | --- |
| ≤ 10 | > 500 | ≤ 10 | ≤ 10 | ≤ 10 |  |  |  |  |  |  | B1 |
|  | > 1000 | > 10 | > 10 | > 10 |  |  |  |  |  |  | B2 |
|  |  |  |  |  | 2 | 490 | 0.5 | 2.8 | > 100000 | 0.78 | B3 |
|  | > 100 |  | ≤ 10 | ≤ 10 |  |  |  |  |  |  | B4 |
|  |  |  |  |  | 24.5 | 436 | 1.1 | 4.1 |  | 2.5 | B5 |
|  |  |  |  |  | 16.5 | 270 | 0.9 | 2.2 |  | 3 | B6 |
|  |  |  |  |  |  | 302 | 7.3 | 3 | > 100000 | 22 | Ac-[Pen][NMeR]SDTL[Pen]W[dE][dK]-NH2 (disulfide 1-7; also: dimer, two subunits joined by DIG linker, also called peptide 211) [SEQ ID NO: 211] |
|  | > 500 |  | ≤ 10 | ≤ 10 |  |  |  |  |  |  | B7 |
|  |  |  |  |  |  | 539 | 4.2 | 4.7 | > 100000 | 12 | B8 |
|  |  |  |  |  |  | 315 | 1.2 | 2.3 | > 100000 | 3.2 | B9 |
|  | > 1000 | > 50 |  | > 50 |  |  |  |  |  |  | XRSDTLXWE (Ac Pen N-Me-R S D T L Pen W b-H-E OH; disulfide Pen-Pen) [SEQ ID NO: 146] |
| > 25 | > 100 | ≤ 10 | ≤ 10 | ≤ 10 |  |  |  |  |  |  | B10 |
|  |  |  |  |  |  | 700 | 633 | 7.5 | > 100000 | 200 | Ac-C[NMeR]SDTL[Pen][dK]-NH2 (disulfide 1-7; also: homodimer via IDA linker on D-Lys8 side chains, also called peptide 203) [SEQ ID NO: 203] |
|  |  |  |  |  | 1280 | 463 |  | 2 | > 100000 | 22 | Ac-C[NMeR]SDTL[Pen]W[dK]-NH2 (disulfide 1-7; also: homodimer via DIG linker on D-Lys9 side chains, also called peptide 204) [SEQ ID NO: 204] |
|  | > 100 |  |  | > 25 |  |  |  |  |  |  | B11 |
